Results on one molecule are retold here after PMC8854693.

The test has as its target intact GluN1b-GluN2B NMDA receptor (rat) (UniProt Q00960).

Chain of intact GluN1b-GluN2B NMDA receptor (rat) (Q00960 whole entry, looked up): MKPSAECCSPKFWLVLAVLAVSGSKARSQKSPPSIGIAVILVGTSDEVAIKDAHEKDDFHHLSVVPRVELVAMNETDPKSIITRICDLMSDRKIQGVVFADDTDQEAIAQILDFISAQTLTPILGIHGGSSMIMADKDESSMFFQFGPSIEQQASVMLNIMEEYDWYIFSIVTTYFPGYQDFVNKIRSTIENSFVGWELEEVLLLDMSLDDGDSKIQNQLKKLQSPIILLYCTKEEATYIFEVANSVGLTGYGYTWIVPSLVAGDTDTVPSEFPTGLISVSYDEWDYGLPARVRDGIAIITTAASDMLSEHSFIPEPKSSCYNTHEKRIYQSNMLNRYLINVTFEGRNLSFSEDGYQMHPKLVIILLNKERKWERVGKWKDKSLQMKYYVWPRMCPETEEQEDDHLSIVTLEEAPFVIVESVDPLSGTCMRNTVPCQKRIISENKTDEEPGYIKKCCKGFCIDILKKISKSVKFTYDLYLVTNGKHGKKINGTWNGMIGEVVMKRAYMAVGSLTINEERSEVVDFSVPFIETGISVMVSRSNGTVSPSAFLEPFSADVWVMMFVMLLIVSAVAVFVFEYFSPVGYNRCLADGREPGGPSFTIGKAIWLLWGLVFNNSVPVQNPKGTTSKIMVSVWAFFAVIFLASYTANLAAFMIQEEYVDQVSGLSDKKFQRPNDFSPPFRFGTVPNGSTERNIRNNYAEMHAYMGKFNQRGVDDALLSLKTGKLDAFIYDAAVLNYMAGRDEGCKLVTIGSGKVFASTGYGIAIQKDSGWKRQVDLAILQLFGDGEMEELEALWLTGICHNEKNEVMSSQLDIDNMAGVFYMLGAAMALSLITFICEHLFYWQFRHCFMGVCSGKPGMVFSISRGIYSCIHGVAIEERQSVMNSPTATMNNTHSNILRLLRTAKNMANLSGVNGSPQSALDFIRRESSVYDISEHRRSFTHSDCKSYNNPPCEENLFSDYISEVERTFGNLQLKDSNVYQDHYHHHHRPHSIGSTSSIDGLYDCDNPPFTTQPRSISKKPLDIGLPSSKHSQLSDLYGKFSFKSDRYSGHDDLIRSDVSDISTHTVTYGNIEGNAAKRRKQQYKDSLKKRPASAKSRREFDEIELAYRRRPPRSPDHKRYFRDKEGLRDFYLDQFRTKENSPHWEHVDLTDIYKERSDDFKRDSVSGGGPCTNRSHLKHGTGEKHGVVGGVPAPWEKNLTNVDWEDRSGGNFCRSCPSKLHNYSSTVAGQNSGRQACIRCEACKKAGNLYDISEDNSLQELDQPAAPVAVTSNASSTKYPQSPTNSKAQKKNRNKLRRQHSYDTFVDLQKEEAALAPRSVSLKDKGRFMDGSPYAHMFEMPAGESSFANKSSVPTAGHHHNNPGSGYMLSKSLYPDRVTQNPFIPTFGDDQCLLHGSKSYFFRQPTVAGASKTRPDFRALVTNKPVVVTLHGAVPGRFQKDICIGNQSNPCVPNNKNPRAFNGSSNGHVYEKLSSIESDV

B1: Fv2, variable fragment (Fv) of IgG2 (protein)
VH: DVKLQESGGGLVQPGGSLKLSCAASGFTFSSYTMSWVRQTPEKRLEWVAYISNGGGGTYYPDTVKGRFTISRDNAKNTLYLQMNSLKEDTAMYYCARPSRGGSSYWYFDVWGAGTTVTVSS
VL: DIQMTQSPSSLSASLGGKVTITCKASQDINKYIAWYQHKPGKGPRLLIHYTSSLQPGIPSRFSGSGSGRDYSFSISNLEPEDIATYYCLQYDNLYTFGGGTKLEIK
Molecule B1 came in with a GluN1b-GluN2B NMDAR current, TEVC on Xenopus oocytes, Fv2 at 0.1 mg/ml (% of maximum current) of 60.
